In experiment [1] the target is T1, Recombinant wild type human Plasminogen Activator Inhibitor type 1 (PAI-1) (human, UniProt P05121 24-402).
T1 construct: In the yeast two-hybrid confirmation full-length human PAI-1 was cloned in pGADT7 (GAL4 prey fusion); also called recombinant wt PAI-1; rPAI-1
Briefly: SPR (BIAcore 1000), PAI-1 immobilized on CM5 chip, 25 C.

In experiment [2] the target is T2, urokinase-type plasminogen activator (uPA) (UniProt P00749 21-431, limits assumed). Briefly: immunoprecipitation with uPA without PAI-1, Western blot for 14K GH.
The target of experiment [3] is T1, Recombinant wild type human Plasminogen …. In words: SPR (BIAcore 1000), 16K hPRL immobilized on CM5 chip, 25 C.
Experiment [4] has as its target T2, urokinase-type plasminogen activator …. Briefly: immunoprecipitation with uPA without PAI-1, Western blot for 16K PRL.
In the next experiment the target is T3, PAI-1/uPA complex (human, UniProt P05121 24-402; P00749 21-431, limits assumed).
T3 construct: For SPR formed by incubating PAI-1 (2 uM) and uPA (1.4 uM) for 10 min at 37 C before loading; also called uPA/PAI-1; uPA-PAI-1 complex
Briefly: SPR (BIAcore 1000), 16K hPRL immobilized on CM5 chip, PAI-1 pre-incubated with uPA, 25 C.

B1: Recombinant 14K N-terminal human growth hormone (14K hGH) (other)
chain: MFPTIPLSRLFDNAMLRAHRLHQLAFDTYQEFEEAYIPKEQKYSFLQNPQTSLSFSESIPTPSNREETQQKSNLELLRISLLLIQSWLEPVQFLRSVFANSLVYGASDSNVYDLLKDLEEGIQTLMGRLEDGSP
notes: Produced in E. coli as in WO 98/51323; it is tied to the 14-16 kD fragments in general, not to the tested batch; also called 14K GH; r14K GH
B1: in experiment [1], the Kd was 1000 nM. In addition, in experiment [2], the binding result is recorded as “no binding”.

B2: Recombinant 16K N-terminal human prolactin (16K hPRL) (other, UniProt P01236 29-167, looked up)
chain: LPICPGGAARCQVTLRDLFDRAVVLSHYIHNLSSEMFSEFDKRYTHGRGFITKAINSCHTSSLATPEDKEQAQQMNQKDFLSLIVSILRSWNEPLYHLVTEVRGMQEAPEAILSKAVEIEEQTKRLLEGMELIVSQVHP
notes: domain: 16K N-terminal fragment; also called 16K PRL; 16K prolactin
As to B2, the values for the dissociation constant (Kd) (in experiment [1]; in experiment [3]; with PAI-1/uPA complex) were 600 nM, 580 nM and 150 nM, respectively. Moreover, the binding result in experiment [4] is “no binding”.

The values are drawn from patent US20130035289A1 (UNIVERSITE DE LIEGE, published 2013).
